The source of these data is patent publication US20200277385A1.

Experiment [1] has as its target human CD303 antigen expressed on cells (human) (UniProt Q8WTT0). In words: cell-based or functional assay.
Experiment [2] has the same target. The experiment in a line: flow cytometry on CAL-1 cells (experiment with BIIB059).
For experiment [3] the target is unchanged. The experiment in a line: flow cytometry on CAL-1 cells transfected with CD303 (about 40,000-50,000 CD303/cell).

human CD303 antigen expressed on cells (human), sequence (Q8WTT0 whole entry): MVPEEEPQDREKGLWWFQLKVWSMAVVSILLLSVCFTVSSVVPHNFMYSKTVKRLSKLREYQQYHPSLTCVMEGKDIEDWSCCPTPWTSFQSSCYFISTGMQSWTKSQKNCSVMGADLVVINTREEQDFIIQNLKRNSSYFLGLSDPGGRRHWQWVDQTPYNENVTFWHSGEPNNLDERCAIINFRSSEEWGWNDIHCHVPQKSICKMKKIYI

B1: humanized antibody BIIB059 (antibody, INN chains, looked up, V domains shown)
VH: DVQLVESGGGLVKPGGSLRLSCAASGFTFSTYTMSWVRQAPGKGLEWVATISPGDSFGYYYPDSVQGRFTISRDNAKNSLYLQMNSLRAEDTAVYYCTRDIYYNYGAWFAYWGQGTLVTVSS
VL: DIQLTQSPSSLSASVGDRVTITCKASQSVDYDGDSYMNWYQQKPGKAPKLLIYAASTLESGVPSRFSGSGSGTDFTLTISSLQPEDFATYYCQQANEDPRTFGQGTKVEIK
In the case of B1, in experiment [1], the ADCC Emax (% lysis), CAL-1 target cells amounted to 1.12 % lysis. Further, in experiment [2], the Bmax (MFI) turned out to be 11.8 MFI and the concentration giving a half-maximal response (EC50) came out at 0.6 µg/mL. In addition, in experiment [3], the Bmax (MFI) worked out at 382 MFI and the half-maximal effective concentration (EC50) was determined as 0.784 µg/mL.
